Reference: PMC12102759

B1: NCOA2 peptide 1075-1090 (Nuclear receptor coactivator 2), 16-mer library wild type / NSP3 UBl1 (ORF1ab Nsp3a Ub1, residues 819-925) (parent)
chain 1: DEGALLDQLYLALRNF
chain 2: APTKVTFGDDTVIEVQGYKSVNITFELDERIDKVLNEKCSAYTVELGTEVNEFACVVADAVIKTLQPVSELLTPLGIDLDEWSMATYYLFDESGEFKLASHMYCSFY
B2: NOTCH4 peptide 1604-1619 (Neurogenic locus notch homolog protein 4), 16-mer library wild type / NSP9 (ORF1ab Nsp9, residues 4141-4253) (parent)
chain 1: TFQGAWLGAPEPWEPL
chain 2: NNELSPVALRQMSCAAGTTQTACTDDNALAYYNTTKGGRFVLALLSDLQDLKWARFPKSDGTGTIYTELEPPCRFVTDTPKGPKVKYLYFIKGLNNLNRGMVLGSLAATVRLQ
B3: NYNRIN peptide 1032-1047 (Protein NYNRIN), 16-mer library wild type / NSP3 UBl1 (ORF1ab Nsp3a Ub1, residues 819-925) (parent)
chain 1: PSLSEEILRALSLHDP
chain 2: B1 chain 2
B4: NEK9 peptide 736-751 (Serine/threonine-protein kinase Nek9), 16-mer library wild type / NSP9 (ORF1ab Nsp9, residues 4141-4253) (parent)
chain 1: NSSGLSIGTVFQSSSP
chain 2: B2 chain 2

Variants of: B1
Conditions: with NSP3 UBl1 (ORF1ab Nsp3a Ub1, residues 819-925); bait immobilised on MaxiSorp plates (10 µg), library pre-cleared on GST, 2 h binding at 4 °C, five washes; one round per day, days 1-4; value from days 2 and 3; keep out of graded; scale: average fractional NGS count over selection days 2 and 3

| Variant | screen value |
| --- | --- |
| chain 1 R14F | 2.17e-05 |
| chain 1 R14K | 0 |
| chain 1 R14N | 2.08e-05 |
| chain 1 R14Y | 5.46e-06 |

Variants of: B2
Conditions: with NSP9 (ORF1ab Nsp9, residues 4141-4253); bait immobilised on MaxiSorp plates (10 µg), library pre-cleared on GST, 2 h binding at 4 °C, five washes; one round per day, days 1-4; value from days 2 and 3; keep out of graded; scale: average fractional NGS count over selection days 2 and 3

| Variant | screen value |
| --- | --- |
| chain 1 A5D | 0 |
| chain 1 A5E | 0 |
| chain 1 A5F | 4.11e-05 |
| chain 1 A5G | 0 |
| chain 1 A5K | 0 |
| chain 1 A5L | 5.68e-05 |
| chain 1 A5S | 0 |
| chain 1 A5T | 0 |
| chain 1 A5V | 0.000292 |
| chain 1 A9M | 0 |
| chain 1 A9P | 0 |
| chain 1 A9W | 4.99e-05 |
| chain 1 E11D | 0 |
| chain 1 E11H | 0 |
| chain 1 E11L | 0 |
| chain 1 E11N | 0 |
| chain 1 E11S | 0 |
| chain 1 E11Y | 0 |
| chain 1 E14F | 3.92e-05 |
| chain 1 E14G | 0 |
| chain 1 E14H | 0 |

| Variant | screen value |
| --- | --- |
| chain 1 E14L | 7.93e-05 |
| chain 1 E14Q | 0 |
| chain 1 E14V | 0.000155 |
| chain 1 F2A | 0.000265 |
| chain 1 F2D | 6.3e-05 |
| chain 1 F2E | 3.22e-05 |
| chain 1 F2G | 5.47e-05 |
| chain 1 F2I | 0 |
| chain 1 F2L | 0 |
| chain 1 F2P | 6.51e-05 |
| chain 1 F2V | 0 |
| chain 1 F2W | 0 |
| chain 1 G4D | 0 |
| chain 1 G4L | 0 |
| chain 1 G4P | 0 |
| chain 1 G4R | 0 |
| chain 1 G4V | 0 |
| chain 1 G4Y | 0 |
| chain 1 G8E | 0 |
| chain 1 G8K | 0 |
| chain 1 G8M | 0 |

| Variant | screen value |
| --- | --- |
| chain 1 G8R | 0 |
| chain 1 G8V | 0 |
| chain 1 L7D | 0 |
| chain 1 L7I | 0 |
| chain 1 L7M | 0 |
| chain 1 L16G | 0 |
| chain 1 L16T | 0 |
| chain 1 L16V | 0 |
| chain 1 P10A | 0 |
| chain 1 P10D | 0 |
| chain 1 P10E | 4.5e-05 |
| chain 1 P10G | 0 |
| chain 1 P10I | 0 |
| chain 1 P10L | 0 |
| chain 1 P10Q | 0 |
| chain 1 P10W | 0.00035 |
| chain 1 P12A | 3.02e-05 |
| chain 1 P12F | 1.76e-05 |
| chain 1 P12H | 9.54e-05 |
| chain 1 P12K | 8.35e-05 |
| chain 1 P12Q | 3.5e-05 |

| Variant | screen value |
| --- | --- |
| chain 1 P12R | 8.09e-05 |
| chain 1 P12T | 0 |
| chain 1 P12V | 0.000373 |
| chain 1 P12W | 0 |
| chain 1 P12Y | 2.09e-05 |
| chain 1 P15S | 0 |
| chain 1 P15Y | 0 |
| chain 1 Q3E | 2.09e-05 |
| chain 1 Q3L | 0 |
| chain 1 Q3V | 0 |
| chain 1 W6I | 0 |
| chain 1 W6N | 0 |
| chain 1 W13F | 0 |
| chain 1 W13I | 3.37e-05 |
| chain 1 W13M | 0 |
| chain 1 W13Q | 0 |
| chain 1 W13S | 2.43e-05 |
| chain 1 W13T | 4.47e-05 |

Variants of: B3
Conditions: with NSP3 UBl1 (ORF1ab Nsp3a Ub1, residues 819-925); bait immobilised on MaxiSorp plates (10 µg), library pre-cleared on GST, 2 h binding at 4 °C, five washes; one round per day, days 1-4; value from days 2 and 3; keep out of graded; scale: average fractional NGS count over selection days 2 and 3

| Variant | screen value |
| --- | --- |
| chain 1 A10M | 0 |
| chain 1 D15E | 0 |
| chain 1 D15G | 0 |
| chain 1 D15K | 0 |
| chain 1 E5H | 0 |
| chain 1 E5M | 0 |
| chain 1 E6Q | 2.97e-05 |
| chain 1 H14F | 7.34e-06 |
| chain 1 H14N | 0 |
| chain 1 I7D | 0 |
| chain 1 I7T | 0 |
| chain 1 L3A | 0 |
| chain 1 L8H | 0 |
| chain 1 L11H | 0 |
| chain 1 L13P | 0 |
| chain 1 S2R | 0 |

Variants of: B4
Conditions: with NSP9 (ORF1ab Nsp9, residues 4141-4253); bait immobilised on MaxiSorp plates (10 µg), library pre-cleared on GST, 2 h binding at 4 °C, five washes; one round per day, days 1-4; value from days 2 and 3; keep out of graded; scale: average fractional NGS count over selection days 2 and 3

| Variant | screen value |
| --- | --- |
| chain 1 S14T | 0 |
| chain 1 Q12V | 0 |
| chain 1 F11P | 0.0001 |
| chain 1 G4Y | 0 |
| chain 1 S14E | 0 |
| chain 1 G4W | 0 |
| chain 1 I7S | 0 |
| chain 1 S15G | 3.5e-05 |
| chain 1 F11E | 0.000183 |
| chain 1 S13D | 0.000121 |
| chain 1 V10T | 0 |
| chain 1 S6W | 0 |
| chain 1 L5Q | 0 |
| chain 1 S15M | 0.000159 |
| chain 1 T9H | 1.62e-05 |
| chain 1 F11M | 0.000187 |
| chain 1 F11R | 0 |
| chain 1 Q12D | 3.3e-05 |
| chain 1 S13E | 0.000579 |
| chain 1 Q12N | 0.000424 |
| chain 1 T9E | 0.00124 |
| chain 1 S3Q | 0.000703 |

| Variant | screen value |
| --- | --- |
| chain 1 T9N | 0.000187 |
| chain 1 S13H | 8.96e-05 |
| chain 1 Q12S | 4.58e-05 |
| chain 1 S6Q | 0 |
| chain 1 S13L | 1.28e-05 |
| chain 1 G8T | 0 |
| chain 1 G8Y | 0 |
| chain 1 V10S | 5.93e-05 |
| chain 1 S14I | 0.0016 |
| chain 1 S15L | 2.69e-05 |
| chain 1 S15K | 0 |
| chain 1 I7L | 9.86e-05 |
| chain 1 P16N | 4.17e-05 |
| chain 1 P16K | 0.000119 |
| chain 1 S6L | 9.77e-05 |
| chain 1 Q12E | 0.00594 |
| chain 1 S15A | 2.5e-05 |
| chain 1 S15I | 4.92e-05 |
| chain 1 F11I | 0.000239 |
| chain 1 S13A | 0 |
| chain 1 T9D | 0.00026 |
| chain 1 P16V | 0.000367 |

| Variant | screen value |
| --- | --- |
| chain 1 P16D | 0.000477 |
| chain 1 Q12P | 0 |
| chain 1 T9P | 6.33e-05 |
| chain 1 P16L | 3.5e-05 |
| chain 1 S6A | 0.000439 |
| chain 1 L5R | 0 |
| chain 1 S3V | 0 |
| chain 1 P16T | 2.95e-05 |
| chain 1 S13G | 1.34e-05 |
| chain 1 S3K | 0 |
| chain 1 S6F | 0 |
| chain 1 L5V | 4.92e-05 |
| chain 1 P16Q | 0 |
| chain 1 V10F | 0 |
| chain 1 S6V | 0 |
| chain 1 P16M | 0 |
| chain 1 S2Q | 2.69e-05 |
| chain 1 T9L | 0 |
| chain 1 F11G | 0.000245 |
| chain 1 S2G | 2.56e-05 |
| chain 1 T9G | 0 |
| chain 1 Q12A | 1.81e-05 |
